Data: US20250163116A1, “NEW METHOD TO TREAT INFECTIOUS DISEASES” (INSERM (INSTITUT NATIONAL DE LA SANTÉ ET DE LA RECHERCHE …, priority 2022, published 2025)

Experiments:
[1] = test system: HDMECs infected with S. pneumoniae TIGR4; assay: Integrity of HDMECs infected with S. pneumoniae; assay type: cell-based, human; conditions: 1 μg/mL for 2 h after 30 min infection
Procedure: FIG. 6: ANGPTL4 protects dermal microvascular endothelial cells from infection by S. pneumoniae. HDMECs were infected with S. pneumoniae TIGR4 for 30 min and treated with 1 μg/mL of recombinant human ANGPTL4 for 2 h. Cells were fixed and stained for cellular actin, VE-cadherin and DAPI and analyzed by fluorescent microscopy. Quantifications of VE-cadherin enrichment at intercellular junctions was performed on 30 fields with Image J software. Kruskal-Wallis test *** P<0.0001.
To address whether ANGPTL-4 could also provide vascular protection from Gram-positive bacteria, we investigated the effect of ANGPTL-4 on HDMECs exposed to infection by the Gram-positive bacterium Streptococcus pneumoniae, one of the major causative agents of pneumonia, sepsis, meningitis and other morbidities.

[2] = test system: HDMECs infected with Nm 2C4.3; assay: Integrity of HDMEC monolayers infected with N. meningitidis (VE-cadherin at intercellular junctions, immunofluorescence); assay type: cell-based, human; conditions: uninfected HDMECs
[3] = test system: SCID mice grafted with human skin infected with Nm 2C4.3; assay: Outcome of meningococcal infection in SCID mice grafted with human skin (survival, with or without antibiotics); assay type: in vivo
Procedure: A-D, SCID mice grafted with human skin were infected intravenously with Nm 2C4.3 wild-type strain (5×10^6 bacteria); 2 h after bacterial challenge, mice received recombinant human ANGPTL4 (1 μg, intravenously), cefotaxime (200 mg kg-1, intraperitoneally) alone or in combination with ANGPTL4 or vehicle as a control. 18 h following bacterial challenge, ANGPTL4 (1 μg) and cefotaxime (200 mg kg-1) were re-administered. This experiment was performed twice with n=3 or 4 mice per group, using skin from two different donors. A, A schematic representation of the protocol used in vivo. B, Bacteraemia 4, 18, 48 and 72 h post-infection (mean±s.e.m.). C, Survival curve: * P=0.0275; two-sided log-rank Mantel-Cox survival analysis. D, Thrombosis within the skin grafts at 4 h post-infection was assessed by immunofluorescence analysis and quantified as described in FIG. 8 (error bars show mean±s.e.m.; 40 vessels per mouse were analysed; n=4 mice per group; *** P<0.001; two-tailed Student's t-test.
Six-week-old CB17/Icr-Prkdcscid female mice were obtained from Janvier Labs. Human skin tissues were obtained from adult patients undergoing plastic surgery in the Service de Chirurgie Plastique et Reconstructive of the Groupe Hospitalier Saint-Joseph. […] Experimental procedures were performed as previously described in accordance with the guidelines of the Institut National de la Santé et de la Recherche Médicale and conformed to the European ethical legislation (Directive 2010/63/EU). The experimental protocol was approved by the Animal Experimentation Ethics Committee of the Université Paris Descartes (consent forms CEEA34.O.J.L.039.12 and 2018012515596498). […] A skin flap was created and a full thickness human skin graft was placed onto the wound bed. The transplants were held in place with 6-0 non-absorbable monofilament suture materials, and the flap was then sutured above the transplant. Grafted mice were infected 4-6 weeks after human skin transplantation. N. meningitidis was grown overnight at 37° C. on GCB agar plates prepared without iron and supplemented with 15 μM deferoxamine (Desferal, Novartis). Bacterial colonies were harvested and cultured in RPMI media with 1% BSA medium and 0.06 μM deferoxamine with gentle agitation to reach the exponential phase of growth. Bacteria were then resuspended in physiological saline solution. Mice were infected intravenously with 200 μl (5×10^6 bacteria) of this bacterial suspension. A 10 mg dose of human holotransferrin (R&D Systems) was administered intraperitoneally just before infection. Mice were killed at 4 h after infection. Human skin grafts were carefully collected using a sterile cutter. The tissue was washed in PBS and fixed overnight at 4° C. in 4% paraformaldehyde in phosphate buffer. After washing in phosphate buffer, the specimens were embedded in OCT medium and then frozen at −80° C. Sections of the dermis (7 μm thick) were immobilized on Superfrost Plus microscope slides and subjected to immunofluorescence analysis. Sections were incubated with the primary antibodies for 1 h in PBS/3% BSA then DAPI was added to Alexa-conjugated secondary antibodies for 1 h. After additional washing, coverslips were mounted in glycergel (Dako) and were further analysed using a slide scanner (Lamina, Perkin Elmer). Analysis of the images was performed using ImageJ software (NIH). […]
We then analysed whether ANGPTL4 could provide a beneficial effect when administered with antibiotics.

B1: ANGPTL4: Recombinant human ANGPTL4 (Angiopoietin-like 4), full length, SEQ ID NO: 1, purchased from R&D Systems (protein, listed as Homo sapiens)
chain: MSGAPTAGAALMLCAATAVLLSAQGGPVQSKSPRFASWDEMNVLAHGLLQLGQGLREHAERTRSQLSALERRLSACGSACQGTEGSTDLPLAPESRVDPEVLHSLQTQLKAQNSRIQQLFHKVAQQQRHLEKQHLRIQHLQSQFGLLDHKHLDHEVAKPARRKRLPEMAQPVDPAHNVSRLHRLPRDCQELFQVGERQSGLFEIQPQGSPPFLVNCKMTSDGGWTVIQRRHDGSVDFNRPWEAYKAGFGDPHGEFWLGLEKVHSITGDRNSRLAVQLRDWDGNAELLQFSVHLGGEDTAYSLQLTAPVAGQLGATTVPPSGLSVPFSTWDQDHDLRRDKNCAKSLSGGWWFGTCSHSNLNGQYFRSIPQQRQKLKKGIFWKTWRGRYYPLQATTMLIQPMAAEAAS
endothelial integrity (cell junction organization) upon S. pneumoniae infection [1]: preserved endothelial integrity
effect on organization of the adherens junctions formed by HDMECs [2]: no significant effect
mice surviving the infection ([3]; 1 μg/mouse i.v., 2 h post-infection, all control mice died): 15%
signs of thrombosis and vascular leakage in human dermal vessels of grafts ([3]; at the time of death, data not shown): reduced signs of thrombosis and vascular leakage
